According to article PMC7804310 (2021):

Key:
Experiment in all cases: SPR
[1] = biological target: recombinant cynomolgus monkey MTf(20-709) extracellular domain (cynomolgus monkey)
[2] = biological target: T1, recombinant human Melanotransferrin MTf(20-709) extracellular domain (human, UniProt P08582-1 20-709, N-glycans at Asn 38, Asn 135 and Asn 515 (high mannose N-glycans favoured by kifunensine for crystallization))
T1 chain: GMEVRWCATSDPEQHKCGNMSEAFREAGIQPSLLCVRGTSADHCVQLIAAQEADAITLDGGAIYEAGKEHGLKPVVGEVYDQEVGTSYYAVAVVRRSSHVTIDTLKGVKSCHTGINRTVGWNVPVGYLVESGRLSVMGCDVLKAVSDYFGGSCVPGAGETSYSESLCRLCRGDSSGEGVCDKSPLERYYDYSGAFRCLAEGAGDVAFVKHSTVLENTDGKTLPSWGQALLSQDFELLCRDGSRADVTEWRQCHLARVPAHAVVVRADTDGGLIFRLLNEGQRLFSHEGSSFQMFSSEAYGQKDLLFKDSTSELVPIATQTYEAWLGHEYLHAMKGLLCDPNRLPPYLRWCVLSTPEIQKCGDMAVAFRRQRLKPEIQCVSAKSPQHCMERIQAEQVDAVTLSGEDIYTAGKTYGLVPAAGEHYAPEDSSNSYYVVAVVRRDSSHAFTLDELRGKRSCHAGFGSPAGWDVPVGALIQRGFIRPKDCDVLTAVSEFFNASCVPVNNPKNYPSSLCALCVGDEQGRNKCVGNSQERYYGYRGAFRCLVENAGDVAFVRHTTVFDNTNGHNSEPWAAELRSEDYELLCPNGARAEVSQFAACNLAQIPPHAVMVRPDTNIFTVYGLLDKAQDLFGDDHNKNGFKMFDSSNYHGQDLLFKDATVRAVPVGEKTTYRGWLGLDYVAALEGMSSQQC

[3] = biological target: T1, recombinant human Melanotransferrin …

Kd [1]: 1.1 nM
koff [1]: 0.00047 s⁻¹
koff [2]: 0.00048 s⁻¹
Kd [3]: 1 nM
B1: SC57.32 Fab fragment (Fab, V domains shown)
VH: QVQLQQSGAELMKPGASVKISCKATGYTFSNYRIEWIKQRPGHGLEWIGEILPRGGNTNYNEKFKGKATFTADTSSNTAYMQLTSLTSEDSAVYYCARDDGYYGRFAYWGQGTLVTVSA
VL: DIQMTQTTSSLSASLGDRVTISCRASQDISNYLNWYQQKPDGTVKLLIFYTSRLHSGVPSRFSGSGSGTDYSLTISNLEQEDFATYFCQQGNTLPPTFGGGTKLEIK
